{"source": "IntAct's records for PubMed 30241482", "parents": {"B1": {"name": "Protein ripply3 (Homo sapiens), P57055 (parent)", "chain": "MEPEAAAGARKARGRGCHCPGDAPWRPPPPRGPESPAPWRPWIQTPGDAELTRTGRPLEPRADQHTFGSKGAFGFQHPVRVYLPMSKRQEYLRSSGEQVLASFPVQATIDFYDDESTESASEAEEPEEGPPPLHLLPQEVGGRQENGPGGKGRDQGINQGQRSSGGGDHWGEGPLPQGVSSRGGKCSSSK", "partner": "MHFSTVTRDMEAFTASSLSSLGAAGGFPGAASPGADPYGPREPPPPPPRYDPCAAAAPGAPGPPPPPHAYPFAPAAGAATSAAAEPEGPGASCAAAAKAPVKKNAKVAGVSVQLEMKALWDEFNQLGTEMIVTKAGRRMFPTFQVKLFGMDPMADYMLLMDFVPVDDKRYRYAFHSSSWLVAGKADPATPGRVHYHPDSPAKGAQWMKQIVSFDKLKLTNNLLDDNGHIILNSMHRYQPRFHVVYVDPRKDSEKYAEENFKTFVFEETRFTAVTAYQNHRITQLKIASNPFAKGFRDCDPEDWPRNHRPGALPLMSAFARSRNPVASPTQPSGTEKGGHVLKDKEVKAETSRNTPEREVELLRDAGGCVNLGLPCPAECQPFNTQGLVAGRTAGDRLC"}}}
{"variants_of": "B1", "conditions": "with tbx1_human TBX1, O43435"}
{"variant": "MEPEAAAGARKARGRGCHCPGDAPWRPPPPRGPESPAPWRPWIQTPGDAELSRTGRPLEPRADQHTFGSKGAFGFQHPVRVYLPMSKRQEYLRSSGEQVLASFPVQATIDFYDDESTESASEAEEPEEGPPPLHLLPQEVGGRQENGPGGKGRDQGINQGQRSSGGGDHWGEGPLPQGVSSRGGKCSSSK", "effect of a mutation on the interaction": "decreasing interaction strength"}
{"variant": "MEPEAAAGARKARGRGCHCPGDAPWRPPPPRGPESPAPWRPWIQTPGDAELTRTGRPLEPRADQHTFGSKGAFGFQHPVRVYLPMSKRQEYLRSSGEQVLASFPVQATIDFYDDESTESASEAEEPEEGPPPLHLLPQEVGGRQENGPGGKGRDQGINQGQRSSGGGDHWGEGPLPQGDSSRGGKCSSSK", "effect of a mutation on the interaction": "with no effect"}
{"variant": "MEPEAAAGARKARGRGCHCPGDAPWRPPPLRGPESPAPWRPWIQTPGDAELTRTGRPLEPRADQHTFGSKGAFGFQHPVRVYLPMSKRQEYLRSSGEQVLASFPVQATIDFYDDESTESASEAEEPEEGPPPLHLLPQEVGGRQENGPGGKGRDQGINQGQRSSGGGDHWGEGPLPQGVSSRGGKCSSSK", "effect of a mutation on the interaction": "with no effect"}
{"variant": "MEPEAAAGARKARGRGCHCPGDAPWRPPPPRGPESPAPWRPWIQTPGDAELTRTGRPLEPRADQHTFGSKGAFGFQHPVRVYLPMSKRQEYLRSSGEQVLASFPVQATIDFYNDESTESASEAEEPEEGPPPLHLLPQEVGGRQENGPGGKGRDQGINQGQRSSGGGDHWGEGPLPQGVSSRGGKCSSSK", "effect of a mutation on the interaction": "with no effect"}
